The results in this text go back to publication PMC4092016, “Molecular Characterization of the Na^+/H^+-Antiporter NhaA from Salmonella Typhimurium” (PLoS ONE, 2014).

This data set concerns the molecule itself. The experiment in a line: SEC-MALS; SEC-MALLS with refractive index and UV280 monitoring; two coupled Superdex 200 5/15 columns; 10 mM MES pH 6, 150 mM NaCl, 0.03% β-DDM; 80 µg IMAC-purified STNhaA; protein conjugate analysis separating protein and detergent mass. In general terms: SEC sorts molecules by how far they enter the pores of the column.

A word on the stoichiometry N: it is a count of units in the complex or per binding partner.

B1: Na+/H+ antiporter NhaA from Salmonella enterica serovar Typhimurium LT2, recombinant with carboxy-terminal hexahistidine tag (natural protein)
chain: NLGILKHLHRFFSSDASGGIILIIAAALAMLMANMGATSGWYHDFLETPVQLRVGALEINKNMLLWINDALMAVFFLLIGLEVKRELMQGSLASLRQAAFPVIAAIGGMIVPALLYLAFNYSDPVTREGWAIPAATDIAFALGVLALLGSRVPLALKIFLMALAIIDDLGAIVIIALFYTSDLSIVSLGVAAFAIAVLALLNLCGVRRTGVYILVGAVLWTAVLKSGVHATLAGVIVGFFIPLKEKHGRSPAKRLEHVLHPWVAYLILPLFAFANAGVSLQGVTIDGLTSMLPLGIIAGLLIGKPLGISLFCWLALRFKLAHLPQGTTYQQIMAVGILCGIGFTMSIFIASLAFGNVDPELINWAKLGILIGSLLSAVVGYSWLRARLNAPA
notes: five residues that the expression construct adds at the amino-terminus; Na+/H+ antiporter NhaA, S. Typhimurium LT2, wild type; coding region (nhaA, STM0039) amplified from genomic DNA; calculated mass of the construct 44.01 kDa; Integral membrane protein, held in β-DDM detergent; also called STNhaA; STNhaA-His6; source: E. coli NM554 (pTTQ18A1-STNhaA-His6), membranes solubilized in β-DDM, …
Turning to B1, the “stoichiometry N” value is 2.
